Experimental data from publication PMC9720079, “Identification and Characterization of a Bacteriocin from the Newly Isolated Bacillus subtilis HD15 with Inhibitory Effects against Bacillus cereus” (Journal of Microbiology and Biotechnology, 2022).
Ends that are not written are not given here.

Assays:
[1] = Temperature stability of bacteriocin, relative antimicrobial activity; format: physicochemical; details: for temperature range of stable activity: 12 h incubation; for Relative activity (%): 12 h, read-out agar well diffusion
Procedure: (§1) To evaluate the pH stability of the antimicrobial substance, the buffers were prepared with 0.1 M glycine-HCl buffer (pH between 2 and 4), 0.1 M sodium acetate buffer (pH between 4 and 6), 0.1 M sodium phosphate buffer (pH between 6 and 8), and 0.1 M Tris-HCl buffer (pH between 8 and 10). The antimicrobial substance was mixed with buffer at a ratio of 1:15 and incubated at 37°C for 12 h, and relative antimicrobial activity was measured. To evaluate temperature stability, purified bacteriocin was incubated at 0°C, 20°C, 40°C, 60°C, 70°C, 80°C, or 90°C for 12 h, and at 100°C for 1 h. Relative antimicrobial activity was assessed using the agar well diffusion method, and the zone of inhibition was measured in millimeters. To assess the effect of various enzymes on antimicrobial activity, lysozyme (E.C. 3.2.1.17), α-amylase (E.C. 3.2.1.1), lipase (E.C. 3.1.1.3), protease (E.C. 3.4.24.31), and proteinase K (E.C. 3.4.21.64) (all from Sigma-Aldrich) and pronase E (E.C. 3.4.24.4; Merck Millipore, USA) were prepared in sodium phosphate buffer (pH 7.0) at a final concentration of 4 mg/ml. Purified bacteriocin was mixed with each enzyme at 2 mg/ml and incubated at 37°C for 30 min, and the relative antimicrobial activity was measured.

[2] = test system: Listeria monocytogenes ATCC 15313; test: Inhibitory spectrum, well diffusion method; format: cell-based; details: for antimicrobial activity against L. monocytogenes: well diffusion method
Procedure: (§2) Antimicrobial activity against several gram-positive and gram-negative bacteria was assessed using the agar well diffusion method, with some modifications. Cultures were incubated in tryptic soy medium at 37°C for 60 h. Cell-free supernatants were prepared by centrifugation (3,800 ×g, 4°C, 30 min) and used as an antagonistic substance. Each pathogen at 7.0 log CFU/ml was spread on a TSA plate. An 8-mm-diameter well was created using a cork borer on the agar plate, and 50 μl of the cell-free supernatant was added to the wells. The plates were left undisturbed for a few hours to allow the supernatant to diffuse into the agar and then cultured at 37°C for 18 h. The diameter of the resultant growth inhibition zone was measured as a measure of antimicrobial activity.

[3] = test system: Bacillus cereus KCCM 40152; test: Inhibitory spectrum, well diffusion method; format: cell-based; details: for antimicrobial activity against B. cereus: well diffusion method
Procedure: as §2

[4] = test system: Staphylococcus aureus ATCC 25923; test: Inhibitory spectrum, well diffusion method; format: cell-based; set-up: key to Antibacterial activity: +++: Greater than 15 mm; −: no inhibition zone
Procedure: as §2

[5] = pH stability of bacteriocin, relative antimicrobial activity; format: physicochemical; details: 12 h; for Relative activity (%): substance:buffer 1:15, 37°C, read-out agar well diffusion
Procedure: as §1

gram-negative bacteria = test: Inhibitory spectrum, well diffusion method, gram-negative bacteria as a group; format: cell-based
Procedure: as §2

[6] = test system: Bacillus cereus KCCM 12667; test: Agar well diffusion test of purified bacteriocin; format: cell-based; details: Fig. 3C
Procedure: as §2
The molecular weight of bacteriocin was determined by tricine sodium dodecyl sulfate-polyacrylamide gel electrophoresis (SDS-PAGE; Bio-Rad, USA) at 100 V for 5 h on a 20% polyacrylamide gel with an ultra-low-range molecular weight marker (1,060–26,600 Da; Sigma-Aldrich), followed by silver staining (Amersham Biosciences, Sweden). Direct detection was then performed to determine whether the protein bands corresponded to bacteriocin [23].

α-amylase (E.C. 3.2.1.1) = test: Effect of enzyme treatment on antimicrobial activity; format: in vitro ADME; details: 2 mg/ml, pH 7.0, 37°C, 30 min
Procedure: as §1

[7] = target: T1, proteinase K (E.C. 3.4.21.64) (Parengyodontium album, UniProt P06873); test: as above; format: in vitro ADME; details: 30 min; for effect of proteinase K treatment on antimicrobial activity: 2 mg/ml, pH 7.0, 37°C
T1 construct: purchased Sigma-Aldrich
T1 sequence (P06873 106-384): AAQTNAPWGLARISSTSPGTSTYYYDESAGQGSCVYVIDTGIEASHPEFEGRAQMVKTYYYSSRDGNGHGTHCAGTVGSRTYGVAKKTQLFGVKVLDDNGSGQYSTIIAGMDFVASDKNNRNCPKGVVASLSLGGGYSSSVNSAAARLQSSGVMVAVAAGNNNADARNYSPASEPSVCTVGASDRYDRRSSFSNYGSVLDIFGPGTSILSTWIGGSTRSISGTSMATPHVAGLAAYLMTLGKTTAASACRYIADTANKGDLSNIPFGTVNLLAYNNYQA
Procedure: as §1

lipase (E.C. 3.1.1.3) = test: as above; format: in vitro ADME; details: 30 min
Procedure: as §1

B. cereus = test: Antimicrobial activity in arbitrary units, serial 2-fold dilutions, of purification steps; format: cell-based, Bacillus cereus
Procedure: The protein content in the bacteriocin solution was measured using the modified Lowry method. A 50 μl volume of bacteriocin was mixed with 550 μl of biuret reagent (0.75 mM cupric sulfate and 94 mM sodium hydroxide) and incubated for 10 min at 25°C. A 25 μl volume of Folin–Ciocalteu’s phenol reagent (Sigma-Aldrich, USA) was then added, followed by incubation for 30 min at 25°C. Absorbance was measured at 725 nm using a VersaMax ELISA Microplate Reader (Molecular Devices, USA), and a standard curve was constructed using bovine serum albumin (Sigma-Aldrich). Antimicrobial activity was measured as arbitrary units per milliliter of purified microbial culture using serial 2-fold dilutions of the antimicrobial substance. […] AU/mL was calculated by multiplying AU by the dilution factor.

[8] = test system: Shigella sonnei KCCM 41282; test: Inhibitory spectrum, well diffusion method; format: cell-based; set-up: key: +++: Greater than 15 mm; −: no inhibition zone; details: inhibition zone class
Procedure: as §2

[9] = test system: Shigella flexneri KCCM 11937; test: Inhibitory spectrum, well diffusion method; format: cell-based; set-up: key: +++: Greater than 15 mm; −: no inhibition zone; details: inhibition zone class
Procedure: as §2

[10] = test system: Vibrio parahaemolyticus KCCM 11965; test: Inhibitory spectrum, well diffusion method; format: cell-based; set-up: key: +++: Greater than 15 mm; −: no inhibition zone; details: inhibition zone class
Procedure: as §2

[11] = test system: Vibrio vulnificus ATCC 29306; test: Inhibitory spectrum, well diffusion method; format: cell-based; set-up: key: +++: Greater than 15 mm; −: no inhibition zone; details: inhibition zone class
Procedure: as §2

[12] = test system: Pseudomonas aeruginosa KCCM 12539; test: Inhibitory spectrum, well diffusion method; format: cell-based; set-up: key: +++: Greater than 15 mm; −: no inhibition zone; details: inhibition zone class
Procedure: as §2

[13] = test system: Salmonella choleraesuis KCCM 40736; test: Inhibitory spectrum, well diffusion method; format: cell-based; set-up: key: +++: Greater than 15 mm; −: no inhibition zone; details: inhibition zone class
Procedure: as §2

[14] = test system: Salmonella enteritidis CCARM 8206; test: Inhibitory spectrum, well diffusion method; format: cell-based; set-up: key: +++: Greater than 15 mm; −: no inhibition zone; details: inhibition zone class
Procedure: as §2

[15] = test system: Escherichia coli O157:H7 ATCC 43894; test: Inhibitory spectrum, well diffusion method; format: cell-based; set-up: key: +++: Greater than 15 mm; −: no inhibition zone; details: inhibition zone class
Procedure: as §2

[16] = test system: Cronobacter sakazakii KCTC2949; test: Inhibitory spectrum, well diffusion method; format: cell-based; set-up: key: +++: Greater than 15 mm; −: no inhibition zone; details: inhibition zone class
Procedure: as §2

[17] = listed as purified protein from B. subtilis HD15
[18] = listed as B. subtilis HD15 bacteriocin
[19] = well diffusion, inhibition zone class

## SIGACLVDGPIPVIEG [bacteriocin from Bacillus subtilis HD15, 3.6 kDa bacteriocin related to subtilosin A, purified from B. subtilis HD15 culture by ammonium sulfate, DEAE-Sepharose and Sephacryl steps]
[1]; 0–50°C for 12 h
  antimicrobial activity after incubation: 100%
[1]
  temperature range of stable activity: up to 70 °C
[1]; [17]
  temperature range of stable activity: 0–70 °C
[1]; after 12 h at 70°C and over a pH range between 3 and 9
  activity remaining: more than 70%
[1]; heat 50°C
  Relative activity (%): 100%
[1]; heat 60°C
  Relative activity (%): 95%
[1]; heat 70°C
  Relative activity (%): 70%
[1]; heat 80°C
  Relative activity (%): 20%
[1]; heat 90°C
  Relative activity (%): 0%
[2]; [18]
  antimicrobial activity against L. monocytogenes: strong inhibition
[2]; [17]
  antimicrobial activity against L. monocytogenes: high antimicrobial activity
[2]; [19]
  Antibacterial activity: +++ (Greater than 15 mm)
[3]; [18]
  antimicrobial activity against B. cereus: strong inhibition
[3]; [17]
  antimicrobial activity against B. cereus: high antimicrobial activity
[3]; [19]
  Antibacterial activity: +++ (Greater than 15 mm)
[4]; well diffusion method
  antimicrobial activity against Staphylococcus aureus: no activity
[4]; [19]
  Antibacterial activity: −
[5]; pH 2, 0.1 M glycine-HCl buffer
  Relative activity (%): 50%
[5]; pH 3, 0.1 M glycine-HCl buffer
  Relative activity (%): 80%
[5]; pH 3 to 9 as worded in text, 37°C
  antimicrobial activity remaining: 80%
[5]; pH 4, 0.1 M glycine-HCl or sodium acetate buffer
  Relative activity (%): 95%
[5]; pH 5, 0.1 M sodium acetate buffer
  Relative activity (%): 100%
[5]; pH 5–7, 37°C
  antimicrobial activity maintained: 100%
[5]; pH 6, 0.1 M sodium acetate or sodium phosphate buffer
  Relative activity (%): 100%
[5]; pH 7, 0.1 M sodium phosphate buffer
  Relative activity (%): 100%
[5]; pH 8, 0.1 M sodium phosphate or Tris-HCl buffer
  Relative activity (%): 95%
[5]; pH 9, 0.1 M Tris-HCl buffer
  Relative activity (%): 80%
[5]; pH 10, 0.1 M Tris-HCl buffer
  Relative activity (%): 30%
gram-negative bacteria
  antimicrobial activity against gram-negative bacteria: no activity
[6]
  Antibacterial activity, zone around purified bacteriocin: clear zone
α-amylase (E.C. 3.2.1.1)
  effect of amylase treatment on antibacterial activity: no effect
[7]
  effect of proteinase K treatment on antimicrobial activity: lost
[7]; [17]
  effect of proteinase K treatment on antimicrobial activity: completely inhibited
[7]; proteinase K 2 mg/ml, sodium phosphate buffer pH 7.0, 37°C, read-out relative antimicrobial activity
  Relative activity (%): 0%
Lipase (E.C. 3.1.1.3); 2 mg/ml, pH 7.0, 37°C
  effect of lipase treatment on antibacterial activity: no effect
Lipase (E.C. 3.1.1.3); lipase 2 mg/ml, sodium phosphate buffer pH 7.0, 37°C, read-out relative antimicrobial activity
  Relative activity (%): 100%
B. cereus; purification step from 500 ml culture, reciprocal of maximum 2-fold dilution giving a transparent zone, indicator strain not given
  Total activity (AU): 10,500 AU
B. cereus; total activity per total protein (modified Lowry) of purification step
  Specific activity (AU/mg): 413.4 AU/mg
[8]
  Antibacterial activity: −
[9]
  Antibacterial activity: −
[10]
  Antibacterial activity: −
[11]
  Antibacterial activity: −
[12]
  Antibacterial activity: −
[13]
  Antibacterial activity: −
[14]
  Antibacterial activity: −
[15]
  Antibacterial activity: −
[16]
  Antibacterial activity: −
